Results on 19 sequences are retold here after the DeepSol protein solubility set.

The data set is described as follows: soluble on expression in E. coli; label from the status in PepcDB or PDB records.
For the sequence “MTTRVLYVRHAHAHGRQTWGGDDNKRPLDKKGRRQAEMLVPMLLPFKPTAIYSAVPDRCQATALPLADELGLDVSVNRLFGDDAWETDPEACKKRFTDVVAQGGVPMIVGQGDIIPEMIKWFSENGTLPIDEKIKAKKGSVWVLSFHDGVFTGADYLEHHHHHH”, the “soluble on expression in E. coli” value was “soluble”.
With “AAQPADIVLTQTPSSLPVSVGEKVTMTCKSSQTLLYSNNQKNYLAWYQQKPGQSPKLLISWAFTRKSGVPDRFTGSGSGTDFTLTIGSVKAEDLAVYYCQQYSNYPWTFGGGTRLEIKRGGGGSGGGGSGGGGSGGGGSEVQLQQSGPEVVKTGASVKISCKASGYSFTGYFINWVKKNSGKSPEWIGHISSSYATSTYNQKFKNKAAFTVDTSSSTAFMQLNSLTSEDSAVYYCVRSGNYEEYAMDYWGQGTSVTVSS”, the “soluble on expression in E. coli” value was “soluble”.
The same measure for “MGSDKIHHHHHHMSIRTRSRKSTPKQPESALRRWLKERHITEVECLVPDITGNARGKIIPADKFSHDYGTRLPEGIFATTVTGDFPDDYYALTSPSDSDMHLRPDASTVRMVPWAADPTAQVIHDCYTKDGQPHELAPRNVLRRVLEAYAEVKLQPVVAPELEFFLVQKNTDPDFPLLPPAGRSGRPETARQSYSIDAVNEFDPILDLMYDYCDAMELDVDTLIHESGAAQLEVNFTHADALSRADQVFLFKRTMREAALRHGVYATFLAKPMETEPGSAMHIHQSLLHAGTGKNVFSGKREGGFSDTFAHYLGGLQKYIPMAMGLLAPNVNSYRRLMFGEVSPSNVLWGFDNRTCGLRVPIDAPQNMRVESRFAGSDANPYLAMAATLACGLLGIREKLEPTAPISSNGKEQGYDLPRSLGEALDELEGCEALKEMLGPRFVRAYISVKRKEYETFFRVISSWEREFLLLNV”: “not soluble”.
Turning to “VRQYGDMPSRVVVLHGGPGGAGEVEPLARELGNRGHAVLEPFQTCQTVGGQVDELSSHIERFCAPPVTVIGWSWGAWLGCLLAAQRGMLVRRLILVGSGPFEESYASAIRTTKNSRLTKDQRKEISQLRPTEGDPAEVARFIALSDIADTYARDTSQQPFVAFDGAIHAAVWAEAVDMRRNGALLEAVCAIRCPVVAIHGDYDPRPSEGVQIPLRAALPSADFVQLERCGHKPWQETFAKADFYRALEA”, the “soluble on expression in E. coli” value is “not soluble”.
“ELLVVTGMSGAGKSLVIQSLEDMGFFCVDNLPPVLLPKFVELMAQGNPSLQKVAIAIDLRGKELFKSLVKEIDIIKSRNDVILDVMFLEAKTEKIISRYKESRRAHPLNEQGQRSLIDAINEEREHLSEIRSIANYVIDTTKLKPKELKQRISKFYLDENFETFTINVTSFGFKHGIQMDADLVFDVRFLPNPYYVEELRPFTGLDEPVYNYVMKWKETQIFFDKLTDLLKFMIPGYKKEGKSQLVIAIGCTGGQHRSVALAKRLAEYLNEIFEYNVYVHHRDAHIE”: the “soluble on expression in E. coli” value is given as “not soluble”.
With “MKSPAPSRPQKMALIPACIFLCFAALSVQAEETPVTPQPPDILLGPLFNDVQNAKLFPDQKTFADAVPNSDPLMILADYRMQQNQSGFDLRHFVNVNFTLPKEGEKYVPPEGQSLREHIDGLWPVLTRSTENTEKWDSLLPLPEPYVVPGGRFREVYYWDSYFTMLGLAESGHWDKVADMVANFAHEIDTYGHIPNGNRSYYLSRSQPPFFALMVELLAQHEGDAALKQYLPQMQKEYAYWMDGVENLQAGQQEKRVVKLQDGTLLNRYWDDRDTPRPESWVEDIATAKSNPNRPATEIYRDLRSAAASGWDFSSRWMDNPQQLNTLRTTSIVPVDLNSLMFKMEKILARASKAAGDNAMANQYETLANARQKGIEKYLWNDQQGWYADYDLKSHKVRNQLTAAALFPLYVNAAAKDRANKMATATKTHLLQPGGLNTTSVKSGQQWDAPNGWAPLQWVATEGLQNYGQKEVAMDISWHFLTNVQHTYDREKKLVEKYDVSTTGTGGGGGEYPLQDGFGWTNGVTLKMLDLICPKEQPCDNVPATRPTVKSATTQPSTKEAQPTPLEHHHHHH” the entry was “soluble”; with “MAQLYYRYGTMNSGKTIEILKVAYNYEEQGKGVVIMTSALDTRDGVGYVSSRIGMKRPALAIEETTDIFGYIRDLPEKPYCVLVDEAQFLKRHHVYDLARVVDELDIPVMAFGLKNDFRNELFEGSKYLLLLADKIDEIKTICQYCKKKATMVLRTQDGLPVYDGEQIQIGGNETYISVCRKHYFAPMITSNKEQNYDN”, “not soluble”.
With “KTDPRSMNSRVFIGNLNTLVVKKSDVEAIFSKYGKIVGCSVHKGFAFVQYVNERNARAAVAGEDGRMIAGQVLDINLAAEPKVNR” the entry was “soluble”; with “MAHHHHHHMSKKERYKIWKRIPKCELHCHLDLCFSADFFVSCIRKYNLQPNLSDEEVLDYYLFAKGGKSLGEFVEKAIKVADIFHDYEVIEDLAKHAVFNKYKEGVVLMEFRYSPTFVAFKYNLDIELIHQAIVKGIKEVVELLDHKIHVALMCIGDTGHEAANIKASADFCLKHKADFVGFDHGGHEVDLKEYKEIFDYVRESGVPLSVHAGEDVTLPNLNTLYSAIQVLKVERIGHGIRVAESQELIDMVKEKNILLEVCPISNVLLKNAKSMDTHPIRQLYDAGVKVSVNSDDPGMFLTNINDDYEELYTHLNFTLEDFMKMNEWALEKSFMDSNIKDKIKNLYF”, “not soluble”.
As to “MNHPNAPFQPPMDIDAVWQHSLIRVTDAFALPPIVLRVDDAIIGTLGNFSVSTGKAKAKKTFNVCALVAAALVNGQVLEYQASFPESKRNILYFDTEQSPYHCQLVLQRILALAELPLDQQPEHLLFSHLRSIASPEERRAIIRYAIYHTPNVGLVVIDGIRDLMHDINNSAEATNLMGDLMQWTGERNIHIQTVLHLNKGDDNARGHIGTELNNKTESVLLITKDNSDADRSVVSASIIRSKPFPPFAFRLTEVDNICLRELDTDFTAKDAQPFSYQELSGEEHRTALREAFGQACELGYGDLLKRLSSSYLGVSGRPYGQTKLKELLRFLVNKRMLVKASRGRYQFNPDFHY”, the “soluble on expression in E. coli” value is listed as “not soluble”.
The same measure for “MYDFVIIGGGIIGMSTAMQLIDVYPDARIALLEKESAPACHQTGHNSGVIHAGVYYTPGSLKAQFCLAGNRATKAFCDQNGIRYDNCGKMLVATSDLEMERMRALWERTAANGIEREWLNADELREREPNITGLGGIFVPSSGIVSYRDVTAAMAKIFQSRGGEIIYNAEVSGLNEHKNGVVIRTRQGGEYEASTLISCSGLMADRLVKMLGLEPGFIICPFRGEYFRLAPEHNQIVNHLIYPIPDPAMPFLGVHLTRMIDGSVTVGPNAVLAFKREGYRKRDFSFSDTLEILGSSGIRRVLQNHLRSGLGEMKNSLCKSGYLRLVQKYCPRLSLSDLQPWPAGVRAQAVSPDGKLIDDFLFVTTPRTIHTCNAPSPAATSAIPIGAHIVSKVQTLLASQSNPGRTLRAARSVDALHAAFNQ”: “not soluble”; for “MGSDKIHHHHHHMIKILVDNTAYKKFFAQHGFSALIEINNKRILFDAGQNSITLRENLRLFNEKEGFDYIVLSHGHYDHCDGLKYVIENDLINGKVIAHKDAFLDKYAGNRYIGIDEEIKEYLLKKADLEIIEEPYKIDKDIIVSGYVPREYEYEMEEFQCIKDGKRVKDEVNDDMFLIAKGILITGCSHSGIINVVEYGKKLSEIKGVLGGFHLVGVSDNYLNRIVDYFKSQDFWIMPMHCTGFKALTKLSQLNNFVYGHVGKIIGI”: “not soluble”; for “MAHHHHHHMTNRGVVNAEELRGAVCAIVSRYQKTPQRRLLVCVAGRPGSGKTTIANILAEEARELLRKVSSDPRDHAENAVVVMPMDGYHLYRKTLHAMPNREEAIARRGAEWTFDARKLCRDLQAIRLPSETADKKGAPLYDDVFVPSFDHSVGDPKERDICVSGSAAIVIVEGNYLLYRGTPTWAEVNRCFDMGVFQACPAATCARRLCRRHMAAWGISEAEAMVRATGSDAMNGDLVETTGKNADIVLHSIESSI”: “soluble”.
The same measure for “MVKSIVILIETVTMKIPAVYSDGSFKTFNDSETTAQKLVDSGVVNTFAFGPTLVENGKVAVSENEEVGQDMADNPRTAIVVNEESDRSVHYIVIVSDGRTSESSGLTLYEMAELMKSYGVMTGYNLDVGDSSTMYSLEHHHHHH”: “not soluble”; for “MGSDKIHHHHHHMKNANHRFFLRERLMKLKTTLFGNVYQFKDVKEVLAKANELRSGDVLAGVAAASSQERVAAKQVLSEMTVADIRNNPVIAYEDDCVTRLIQDDVNETAYNQIKNWSISELREYVLSDETSVDDIAFTRKGLTSEVVAAVAKICSNADLIYGAKKMPVIKKANTTIGIPGTFSARLQPNDTRDDVQSIAAQIYEGLSFGVGDAVIGVNPVTDDVENLSRVLDTIYGVIDKFNIPTQGCVLAHVTTQIEAIRRGAPGGLIFQSICGSEKGLKEFGVELAMLDEARAVGAEFNRIAGENCLYFETGQGSALSAGANFGADQVTMEARNYGLARHYDPFIVNTVVGFIGPEYLYNDRQIIRAGLEDHFMGKLSGISMGCDCCYTNHADADQNLNENLMILLATAGCNYIMGMPLGDDIMLNYQTTAFHDTATVRQLLNLRPSPEFERWLESMGIMANGRLTKRAGDPSLFF”: “not soluble”; for “MISWEIEELDREIGKIKKHSLILIHEEDASSRGKDILFYILSRKLKSDNLVGMFSISYPLQLIIRILSRFGVDVIKYLENHRLAIVDTFGSFHGIKATMPGVWYLEGMLSSETLPIKYAKAVEDHKKVWMDLNLFEGRELYGFAISMSGYLEVFTPEETLRYLETSAEVRYGHPAYKKYPRGTNFWLWEGVKDKRVLLSVYRRADYVLKTRSSLGENGIKRELLVIKTPKPIEELVRFEYEFKGNEPKLRRVD”: “soluble”.
As for “MGSDKIHHHHHHMSVAHENARRIISDILGKQNIERVWFVGCGGSLTGFWPGKYFLDCEASKLAVGYITSNEFVHATPKALGKNSVVILASQQGNTAETVAAARVAREKGAATIGLVYQPDTPLCEYSDYIIEYQWARYPETVDPAQQKAAYSLWLALEILAQTEGYAQYDELVSAFGRFSDVVHGAQRQVQEDAQRFAAEWKDEKVVYMMGSGPSFGAAHQESICILLEMQWINSASIHSGEYFHGPFEITEPGTPFILLQSSGRTRPLDDRAIRFIERYQGKLQLIDADKLGIQDLSTDVGEYFCGLLHNCVLDVYNLALATARNHPLTTRRYMWKVEY”, the “soluble on expression in E. coli” value is “not soluble”.
Consider “KKQITVLDLHPGAGKTRRILPQIIKEAINRRLRTAVLAPTRVVAAEMAEALRGLPIRYQTSAVAREHNGNEIVDVMCHATLTHRLMSPHRVPNYNLFVMDEAHFTDPASIAARGYISTRVELGEAAAIFMTATPPGTSDPFPESNAPISDLQTEIPDRAWNSGYEWITEYIGKTVWFVPSVKMGNEIALCLQRAGKKVIQLNRKSYETEYPKCKNDDWDFVVTTDISEMGANFKASRVIDSRKSVKPTIITEGEGRVILGEPSAVTAASAAQRRGRTGRNPSQAGDEYCYGGHTNEDDSNCAHWTEARIMLDNINMPNGLIAQFYQPEREKVYTMDGEYRLRGEERKNFLELLRTADLPVWLAYKVAAAGVSYHDRRWCFDGPRTNTILEDNNEVEVITKLGERKILRPRWIDARVYSDHQALKSFKDFASGKR”, for which the “soluble on expression in E. coli” value is “soluble”.
The same measure for “MTMKCFLVILPLLVLYWIVSNRKRSGPLTNPHYKECLRKEWYTSPNVSSTEDFGSSYQISFADVQKTFKWLYLPEIDDPEIILTVMTRVDALARRNVLRKTWMTQRNRIKSIFVIGLGGDVDQKTKELVMSEAALYGDMVVTNIEDSFSKVAFKMLSMLLYGFSKVPSAKFIGKVDDDVLFYPNVLLSYMDNNTDTIHPQGSRMYGHITETRFITAGIPTGAECCEKFDSDSKCANYVTFLGGSFLMFTRQAVEGVLMASKHRKFHRIDDTMVTGYLADDVGAQRVNMTMMFMGYEPTKEPILFSSHIPLKDHEYLEQYRIQMADFKEQRLFTKYIGE”: “not soluble”.
